Experimental data as given in the supplement of paper PMC10567573.

B1: MNAT1 (parent)
chain: LEEALYEYQPLQIETYGPHVPELE

Variants of: B1
Test: protein stability index of a GFP-peptide fusion (GPS, HEK-293T) (PSI 1-6); higher = more stable
Settings: c terminus: a fixed tail appended
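Further: lentivirally expressed fusions sorted by FACS into six bins by GFP to DsRed ratio, PSI derived from sequencing read proportions per bin multiplied by bin number.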

| Variant | protein stability index |
| --- | --- |
| L11H | 4.61 |
| L11F | 4.11 |
| L11P | 5.15 |
| L11V | 2.04 |
| L11M | 3.17 |
| L11S | 4.11 |
| L11G | 5.26 |
| L11A | 4.06 |
| L11R | 4.32 |
| L11T | 3.99 |
| L11Y | 3.18 |
| L11C | 2.99 |
| E3F | 3.39 |
| E3D | 3.19 |
| E3W | 1.45 |
| E3P | 4.05 |
| E3H | 3.16 |
| E3K | 2.64 |
| E3T | 3.16 |
| E3N | 3.67 |
| E3V | 1.74 |
| E3Y | 2.04 |
| E3S | 3.63 |
| E3G | 3.41 |

| Variant | protein stability index |
| --- | --- |
| E3M | 2.19 |
| E3C | 2.42 |
| E3A | 2.43 |
| E3I | 2.13 |
| P21F | 1.44 |
| P21E | 3.67 |
| P21R | 2.96 |
| P21W | 1.75 |
| P21H | 2.58 |
| P21D | 3.3 |
| P21Q | 3.42 |
| P21V | 2.19 |
| P21S | 2.41 |
| P21A | 2.92 |
| P21G | 1.97 |
| P21L | 2.79 |
| P21T | 2.56 |
| P21K | 3.01 |
| P21N | 2.47 |
| E24R | 1.95 |
| E24D | 3.39 |
| E24A | 2.84 |
| E24L | 2.19 |
| E24Y | 1.39 |

| Variant | protein stability index |
| --- | --- |
| E24I | 1.88 |
| E24M | 2.14 |
| E24C | 1.76 |
| E24G | 2.03 |
| E24T | 2.67 |
| E24V | 2.19 |
| E24H | 2.25 |
| E24F | 1.91 |
| E24W | 1.45 |
| E24Q | 2.18 |
| Y6E | 2.74 |
| Y6A | 2.3 |
| Y6W | 2.39 |
| Y6H | 3.11 |
| Y6Q | 2.81 |
| Y6D | 4.36 |
| Y6C | 2.61 |
| Y6P | 5.47 |
| Y6S | 2.41 |
| Y6L | 3.43 |
| Y6T | 3.56 |
| Y6K | 2.46 |
| Y6R | 2.27 |
| Y6F | 2.8 |

| Variant | protein stability index |
| --- | --- |
| Y6N | 3.7 |
| L1K | 4.81 |
| L1E | 5.1 |
| L1S | 5.15 |
| L1R | 4.12 |
| L1M | 3.18 |
| L1C | 4.72 |
| L1W | 4 |
| L1P | 4.88 |
| L1I | 3.45 |
| L1N | 4.72 |
| L1A | 5.28 |
| L1H | 4.98 |
| P18N | 3.31 |
| P18S | 2.6 |
| P18F | 2.17 |
| P18I | 2.04 |
| P18V | 2.39 |
| P18Y | 2.97 |
| P18T | 3.02 |
| P18C | 1.91 |
| P18Q | 3.3 |
| P18D | 2.8 |
| P18H | 2.81 |

| Variant | protein stability index |
| --- | --- |
| P18K | 4.11 |
| P18W | 1.18 |
| E7M | 2.19 |
| E7W | 2.1 |
| E7Q | 2.28 |
| E7Y | 1.98 |
| E7T | 2.68 |
| E7I | 2.44 |
| E7A | 2.19 |
| E7S | 2.76 |
| E7P | 2.71 |
| E7R | 1.73 |
| E7C | 1.92 |
| E7V | 1.73 |
| A4Y | 3.51 |
| A4I | 2.88 |
| A4H | 4.59 |
| A4G | 4.4 |
| A4V | 1.91 |
| A4P | 4.28 |
| A4N | 4.61 |
| A4C | 3.81 |
| A4K | 4.33 |
| A4S | 4.67 |

| Variant | protein stability index |
| --- | --- |
| A4Q | 4.89 |
| A4E | 4.56 |
| A4W | 2.96 |
| E2W | 2.34 |
| E2V | 2.55 |
| E2M | 2.71 |
| E2L | 2.96 |
| E2G | 2.24 |
| E2F | 1.71 |
| E2Y | 1.71 |
| E2N | 2.4 |
| E2Q | 1.71 |
| E2S | 2.4 |
| E2R | 3.28 |
| E2T | 2.2 |
| E2D | 3.89 |
| E2H | 1.73 |
| Y8P | 5.25 |
| Y8C | 4.91 |
| Y8N | 5.74 |
| Y8G | 5.41 |
| Y8T | 5.38 |
| Y8W | 3.59 |
| Y8Q | 5.5 |

| Variant | protein stability index |
| --- | --- |
| Y8R | 5.44 |
| Y8H | 4.27 |
| Y8S | 5.53 |
| Y8K | 5.14 |
| Y8V | 4.98 |
| Y8I | 4.92 |
| Y8F | 3.75 |
| Y8M | 4.71 |
| V20D | 2.36 |
| V20P | 2.21 |
| V20N | 3.23 |
| V20H | 2.1 |
| V20A | 3.26 |
| V20C | 2.15 |
| V20Q | 2.92 |
| V20G | 3.45 |
| V20F | 2.36 |
| V20M | 2.57 |
| V20W | 2.17 |
| V20S | 2.57 |
| V20T | 2.38 |
| V20Y | 2.78 |
| V20E | 1.94 |
| G17F | 2.35 |

| Variant | protein stability index |
| --- | --- |
| G17S | 2.27 |
| G17K | 2.88 |
| G17A | 2.35 |
| G17E | 3.14 |
| G17M | 1.75 |
| G17H | 3.14 |
| G17P | 2.69 |
| G17I | 2.13 |
| G17W | 1.74 |
| G17V | 2.12 |
| G17N | 2.99 |
| G17Q | 2.53 |
| G17Y | 1.59 |
| H19I | 1.57 |
| H19C | 3.3 |
| H19Y | 2.62 |
| H19A | 2.89 |
| H19S | 2.69 |
| H19D | 2.76 |
| H19K | 2.8 |
| H19P | 2.01 |
| H19T | 3.17 |
| H19N | 2.82 |
| H19L | 2.33 |

| Variant | protein stability index |
| --- | --- |
| H19Q | 2.37 |
| H19V | 2.21 |
| H19F | 2.11 |
| Q9D | 4.67 |
| Q9G | 3.46 |
| Q9A | 2.86 |
| Q9C | 2.6 |
| Q9H | 1.87 |
| Q9N | 2.59 |
| Q9F | 2.13 |
| Q9I | 3.56 |
| Q9Y | 2.43 |
| Q9P | 5.02 |
| Q9K | 2.68 |
| Q9R | 1.88 |
| Q9T | 4.38 |
| Q9E | 4.38 |
| L5R | 4.32 |
| L5Q | 5.38 |
| L5K | 5.06 |
| L5P | 5.19 |
| L5H | 4.96 |
| L5M | 4.64 |
| L5A | 4.97 |

| Variant | protein stability index |
| --- | --- |
| L5T | 4.9 |
| L5G | 4.8 |
| L5N | 4.81 |
| L5V | 4.64 |
| L5W | 3.89 |
| L5D | 5.12 |
| E22A | 2.47 |
| E22T | 2.56 |
| E22Q | 2.54 |
| E22N | 2.31 |
| E22M | 2.35 |
| E22Y | 2.49 |
| E22H | 2.2 |
| E22S | 2.4 |
| E22I | 1.84 |
| E22D | 2.46 |
| E22C | 3.71 |
| E22G | 2.43 |
| E22R | 2.35 |
| E22P | 2.28 |
| E22W | 1.54 |
| E22L | 2.35 |
| E22K | 2.31 |
| E14G | 3.31 |

| Variant | protein stability index |
| --- | --- |
| E14S | 2.25 |
| E14Q | 2.19 |
| E14V | 1.82 |
| E14P | 4.22 |
| E14F | 2.01 |
| E14C | 2.12 |
| E14T | 2.32 |
| E14L | 2.01 |
| E14Y | 1.87 |
| E14W | 1.6 |
| E14M | 2.47 |
| E14H | 1.8 |
| E14N | 2.61 |
| E14D | 2.68 |
| E14R | 1.93 |
| L23R | 3.99 |
| L23K | 3.59 |
| L23P | 3.19 |
| L23E | 4.12 |
| L23Y | 2.89 |
| L23Q | 2.98 |
| L23G | 3.55 |
| L23I | 2.53 |
| L23V | 2.81 |

| Variant | protein stability index |
| --- | --- |
| L23W | 2.84 |
| L23T | 2.6 |
| L23H | 3.29 |
| L23C | 3.16 |
| L23A | 3.56 |
| Q12K | 1.84 |
| Q12H | 2.5 |
| Q12Y | 2.01 |
| Q12G | 2.75 |
| Q12S | 2.21 |
| Q12C | 2.14 |
| Q12D | 3.92 |
| Q12M | 2.35 |
| Q12I | 2.5 |
| Q12W | 2.11 |
| Q12F | 2.12 |
| Q12N | 2.65 |
| Q12T | 3.19 |
| Y16H | 3.15 |
| Y16K | 4.34 |
| Y16D | 5.37 |
| Y16G | 4.52 |
| Y16A | 4.54 |
| Y16M | 3.79 |

| Variant | protein stability index |
| --- | --- |
| Y16S | 4.27 |
| Y16R | 3.19 |
| Y16W | 2.49 |
| Y16Q | 4.33 |
| Y16E | 4.13 |
| Y16N | 4.7 |
| Y16I | 3.61 |
| P10S | 4.05 |
| P10V | 2.25 |
| P10A | 3.89 |
| P10G | 4.24 |
| P10E | 4.6 |
| P10C | 3.27 |
| P10N | 4.75 |
| P10Y | 3.09 |
| P10R | 4.01 |
| P10K | 4.53 |
| P10L | 3.32 |
| P10M | 3.85 |
| P10T | 4.1 |
| P10W | 2.63 |
| P10I | 2.77 |
| T15S | 3.54 |
| T15F | 1.75 |

| Variant | protein stability index |
| --- | --- |
| T15V | 1.7 |
| T15L | 1.82 |
| T15Y | 2.01 |
| T15G | 4.13 |
| T15E | 4.43 |
| T15R | 4.41 |
| T15W | 2.2 |
| T15K | 4.14 |
| T15N | 4.13 |
| T15A | 1.99 |
| T15M | 2.32 |
| T15D | 4.73 |
| I13L | 4.51 |
| I13Q | 5.01 |
| I13P | 5.08 |
| I13K | 4.9 |
| I13A | 5.37 |
| I13S | 4.96 |
| I13H | 5.15 |
| I13G | 5.01 |
| I13T | 4.75 |
| I13R | 4.76 |
